# Results published in publication PMC6047819, “Small-angle X-ray scattering study of the kinetics of light-dark transition in a LOV protein” (PLoS ONE, 2018).
# Residue numbers refer to the chain shown, from its start. Names and notes keep the numbering of the source.
# B1: PpSB1-LOV-R66I (natural protein, Pseudomonas putida)
# chain: MINAQLLQSMVDASNDGIVVAEKEGDDTILIYVNAAFEYLTGYSRDEILYQDCRFLQGDDRDQLGIARIRKAMAEGRPCREVLRNYRKDGSAFWNELSITPVKSDFDQRTYFIGIQKDVSRQVELERELAELRARPKPDERA
# notes: PpSB1-LOV, short LOV protein of Pseudomonas putida: LOV core domain flanked by N- and C-terminal helices; mutant R66I; It says that the N-terminal 20 and the C-terminal 8-9 amino acids are disordered in the wild-type crystal structures; also called PpSB1-R66I; PpSB1-LOV mutant R66I; source: purified (Ni-NTA Superflow, SEC on Superdex 200)
# B2: PpSB1-LOV-R61H/R66I (natural protein, Pseudomonas putida)
# chain: B1 chain with R61H
# notes: PpSB1-LOV, short LOV protein of Pseudomonas putida; double mutant R61H/R66I; dark-state crystal structure PDB 6GG9; also called PpSB1-R61H/R66I-LOV; double mutant
# Columns and labels:
# [1] = target: the molecule itself; assay: SAXS; steady state, fully populated light state (continuous blue-light LED, 450 nm); beamline BM29; 20°C; 10 mM Tris, 10 mM NaCl, pH 7; data of 2.5 and 6.1 mg/mL merged; molecular mass from QR after Rambo and Tainer
# [2] = target: the molecule itself; assay: crystal structure; dark-state crystal structure of the double mutant, FMN bound (PDB 6GG9)
Protein,stoichiometry N [1],binding result [2]
B1,2,–
B2,–,binds
